Earlier results in article PMC4692369.

Biological target: Tyr57 (UniProt position 57, QIAAFYRQGLG)
Experiment: UV-vis
Settings: apo enzyme

Q: With “Ketosteroid isomerase D40N (earlier construct without LVPR) (Pseudomonas putida; D40N)” as the substance, how does the pKa read?
A: The pKa was 6.3.
